The results in this text go back to patent publication US20240043566A1 (SUZHOU TRANSCENTA THERAPEUTICS, published 2024).

First the molecules themselves.
B1: 4B6 scFv variant L-CDR1-1 (scFv)
scFv: DIQMTQSPSSLSASVGDRVTITCKASQNVGAIVAWYQQKPGKAPKLLIYSASNRYTGVPSRFSGSGSGTDFTLTISSLQPEDIATYYCQQYSNYPTFGQGTKLEIKGGGGSGGGGSGGGGSQVQLVQSGAEVKKPGASVKVSCKASGYVFTDYYMNWVRQAPGQSLEWMGDINPNNAGTSYNHKFKGRVTVTVDKSISTAYMELSRLRSDDTAVYYCVKWGDGPFAYWGQGTLVTVSS
notes: also called 4B6-L-CDR1-1
B2: 4B6 scFv variant L-CDR1-2 (scFv)
scFv: DIQMTQSPSSLSASVGDRVTITCKASQNVPAAVAWYQQKPGKAPKLLIYSASNRYTGVPSRFSGSGSGTDFTLTISSLQPEDIATYYCQQYSNYPTFGQGTKLEIKGGGGSGGGGSGGGGSQVQLVQSGAEVKKPGASVKVSCKASGYVFTDYYMNWVRQAPGQSLEWMGDINPNNAGTSYNHKFKGRVTVTVDKSISTAYMELSRLRSDDTAVYYCVKWGDGPFAYWGQGTLVTVSS
notes: also called 4B6-L-CDR1-2
B3: 4B6 scFv variant L-CDR1-3 (scFv)
scFv: DIQMTQSPSSLSASVGDRVTITCKASQNVKGAVAWYQQKPGKAPKLLIYSASNRYTGVPSRFSGSGSGTDFTLTISSLQPEDIATYYCQQYSNYPTFGQGTKLEIKGGGGSGGGGSGGGGSQVQLVQSGAEVKKPGASVKVSCKASGYVFTDYYMNWVRQAPGQSLEWMGDINPNNAGTSYNHKFKGRVTVTVDKSISTAYMELSRLRSDDTAVYYCVKWGDGPFAYWGQGTLVTVSS
notes: also called 4B6-L-CDR1-3

T1 sequence (Q9NZQ7 19-239 limits assumed, stated change not applied): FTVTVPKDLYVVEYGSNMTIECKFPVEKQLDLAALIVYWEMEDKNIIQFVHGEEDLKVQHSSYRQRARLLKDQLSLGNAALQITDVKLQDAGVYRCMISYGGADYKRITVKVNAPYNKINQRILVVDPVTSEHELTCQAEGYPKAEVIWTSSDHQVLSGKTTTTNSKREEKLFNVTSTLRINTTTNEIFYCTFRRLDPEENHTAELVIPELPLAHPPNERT

The assay concerns the target T1, human PD-L1-Fc (Sino Biological, 70110-D02H) (human, UniProt Q9NZQ7 19-239).
T1 construct: also called hPD-L1-Fc; not shown: Fc part
Kind of assay: BLI, PD-L1-Fc loaded, scFv in solution.
With B1, the “Fold increase (over L-CDR1-WT)” value is 4.08 fold.

In the case of B2, the “Fold increase (over L-CDR1-WT)” value stood at 4.96 fold.

Regarding B3, the “Fold increase (over L-CDR1-WT)” value was determined as 10.1 fold.
